experiment: yeast display, Sf9 membrane polyspecificity reagent, FACS + sequencing; frameworks hold sequencing errors
Outline: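 Galactose induction of a Saccharomyces cerevisiae BJ5465 synthetic nanobody display library ran 36–48 hours. The cells were then stained for 1 hour at 4 °C with 10% biotinylated, detergent-solubilized Sf9 membrane reagent, pulled down on streptavidin microbeads and FACS-sorted into low and high (top ~1%) gates on expression and reagent-binding fluorescence. Labels for polyreactivity follow the gate of origin.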

Row | Sequence | polyreactivity (PSR sort gate)
1 | QVQLVESGGGLVQAGGSLRLSCAASGLTLYKNGMGWYRQAPGKERELVAVISRSGGRTYYADSVKGRFTISRDNAKNTVYVQMNSLKPEDTAVYYCAARQYGPRYTYYYWGQGTQVTVSS | high polyreactivity
2 | QVQLVETGGGLVQAGGSLRLSCPASGRIFEDNAMGWYRQEPGKERELVAAIDFSGGDTYYADSVKGRFTISRDNAKNTVYLQMNSLKPEDTAVYYCAAGRSGWGYDSWGQGTQVTVSS | low polyreactivity
3 | QVQLVESGGGLVQAGGSLRLSCAASGSIFKPYAMGWYRQAPGKERELVAAISSSGGSTYYADSVKGRFTISRDNAKNTVYLQMNSLKPEDTAVYYCNADWYYAGYGYWGQGTQVTVSS | low polyreactivity
4 | QVQLVESGGGLVQAGGSLRLSCAASGFTFGFNTMGWYRQAPGKERELVATITSGGSTYYADSVKGRFTISRDNAKNTVYLQMNILKPEDTAVYYCAATAGSPWAKSRYGYWGQGTQVTVSS | low polyreactivity
5 | QVQLVESGGGLVQAGGSLRLSCAASGRIFGANAMGWSRQAPGKERELVATITYVGTSTYYADSVKGRFTISRDNAKNTVYLQMNSLKPEDTAVYYCAADGYSVFAAILGEYFDYDYWGQGSQVTVSS | low polyreactivity
6 | QVQLVESGGGLVQAGGSLRLSCAASGRTFTKYAMGWDRQAPGKERELVAVISVIGGTNYADSVKWRFTISRDNAKNTVYLQMNSLKPEDTAVYYCAAVSREHDYWGQGTQVTVSS | high polyreactivity
7 | QVQLVESGGGLVQAGGSLRLSCAPSGRILGYYAMGWYRQAPGKERELVAAISSGDSTNYADSVKGRFTISRDNAKYTVYLQMNSLKPEDTAVYYCAAKGWIWNAYNYWGQGTQVTVSS | low polyreactivity
8 | QVQLVESGGGLVQAGGSLRLSCAASGSTFSLYARGWYRQAPGKETELVAAITRGGNTYYADSVKGRFTISRDNAKNTVYLQMNSLKPEDTAVYYCNAYYYQFRGIRVSGGYWGQGTQVTVSS | high polyreactivity
9 | QVQLVESGGGLVQAGGSLRLSCSASGRTFSRYAMGWYSQAPGTERELVATISRRGGSTYYADSVKGRFTISRDNAKNTVYLQMNSLKPEDTAVYYCAARLYTQYYYWGQGTQVTVSS | high polyreactivity
10 | QVQLVESGGGLVQAGGSLRLSCAASGRIYDYMGWYRQAPGKERELVAAITSSGVSTYYADSVKGRFTISRDNAKNTVYLQMNSLKPEDTAVYYCAAERVYIVWFTHEIFNYWGQGTQVTVSS | high polyreactivity
11 | QVQLVESGGGLVQAGGSLRLSCAASGSIFYRNAMGWYRQAPGNERELVAAITSGASTYYADSVKGRFTISRDNAKNTVYLQMNSLKPEDTEVYYCAADSDSQWGMDYWGQGTQVTVSS | low polyreactivity
12 | QVQLVETGGGLVQAGGSLRLSCAASGLTIHPYAKGCYRQAPGKERELVAAISSRGTSTYYADSVKGRFTISRDNAKNTVYLQMNSLKPEDTAVYYCAARHGPRAEAMYYWGQGTQVTVSS | high polyreactivity
13 | QVQLEESGGGLVQEGGSLRLSCAASGSIFGGYVMGWYRQAPGKERELVAVITKRGGSTYYADSVKGRFTISRDNAKNTVYFQMNSLKPEDTAVYYCNKDGYYASVLGYDYWGQGTQVTVSS | high polyreactivity
14 | QVQLVESGGGLVQAGGSLRLSCAASGSILGRYAMGGYRQAPGKERELVASITRRAGTTYYADSVKGRFTISRDNAKNTVYLQKNSLKPEATAVYYCAARAYTNYYYWGQGTQVTVSS | high polyreactivity
15 | QVHLVESGGGLVQAGGSLRLSCAASGRTFPYNAMGWYRQAPGKERELVAAISWRGGSTYYADSVKGRFTISRDNAKNTVYLQMNSLKPEDTAVYYCNALYPVSYDHRGDYWGQGTQVTVSS | high polyreactivity
16 | QVQLVESGGVLVQALGSLRLSCAASVITIDNYVMGWYRQAPGKERELVAAISIGGGTYYADSVKGRFTISRDNAKNTVYLQMNSRKPEDSAVYYCKARSDVSYWWGGYWGQGTQVTVSS | low polyreactivity

Row | Sequence | polyreactivity (PSR sort gate)
17 | QVQLVESGGGLVQAGGSLRLSCAASGFTLSASAMGWYRQAPGKERELVAGITYTGGRTYYADSVKGRFTISRDNAKNTVYFQMNSLKPEVTAVYYCNKAWSGYYKYGYWGQGTQVSVSS | low polyreactivity
18 | QVQLVESGGGLVQAGGSLRLSCAASGITFRKYVMGWYRPAPGKERELVAAITRGGSTNYADSVKGRFTISRDNAKNTVYLQMNSLKPEDTAVYYCATRQSWYPRWMDYWGQGTQVTVSS | high polyreactivity
19 | QVQLVESGGGLVQAGGSLRLSCAASGSTFDYYTMGWYRQAPGKERELVAAISSSGGSTYYADSVTGRFTISRDNAKNTVYLQMNSLKPEDTAVYDCAARGYHYSYLRGDTGYYYWGQGTQVTVSS | low polyreactivity
20 | QVQLVESGGGLVQAGGSLRLSCAASGYILPKNTMGWYRQAPGKERELVAAISWSGGSTFYADSVKGRFTISRDNAKHTVYLQMNSLKPEDTAVYYCAADRSWSWYYRYDYWGQGTQVTVSS | low polyreactivity
21 | QVHLVESGGGLVQAGGSLRISCAASGRTFQVYAMGRYRQAPGKERELVAAISLTGGGTYYADSVKGRFTISRDYANNTVYLQMNSLKPEDTAVYYCAVRRRTHLGFLYEYWGQGTQVTVSS | high polyreactivity
22 | QVQLVESGGGLVQAGGSLRLSCAASGIIFWYYAMGWYRQAPGKERELVASIDWSGGSTYYADSVKGRFTISRDNAKNTVYLQMKSLKPEDTAVYDCNAGSDIYWSAATYGYWGQGTQVTVSS | high polyreactivity
23 | QVQLVESGGGIVQAGGSLRLSCAASGLIFYYYALGWYRQAPGKERQLVAAITSGSTTYADSVKGRFTISRDNAKNTVYLQMNSLKPEDTAVYYCNKDQDYKLTTTFDYDYWGQGTQVTVSS | low polyreactivity
24 | QVQLVESGGGLVQAGGSLRLSCAASGRIFNYYDMGWYRQAPGKERELVAAISSGGTTYYADSVKGRFTISRDNAKNTVYLQMNCLKREDTAVYFCASYYTPQRLRSGKFDYWGQGTQVTVST | high polyreactivity
25 | QVQLVESGGGLVQAGGSLRLSCAASGSTFEQNAMGWYRPAPGKEREFVAAITGSGGSTYYADSVKGRFTISRDNAKNTVYLQMNSMKPEDTAVYYCAADIQDGWYWWDIYDYWGQGTQVTVSS | low polyreactivity
26 | QVQLVESGGGLVQAGGSLRLSCAASGSIFGYYTMGWYRKAPGKERELVAAITSGGSTNYADSVKGRFTISRDNAKNTVYLQMNSLKPEDTAVYYCAKVSYYPWRYDYWGQGTQVTVSS | low polyreactivity
27 | QVQLVESGGGLVQAGGSLRLSCAASGITFYRYAMGWYRQAPGKERELVAAISWSGGSTYYADSVKGRFTFSRDNAKNTVYLQMNSLKPEDTAVYYCNKYIRYPFKRYGYWGQGTQVTLSS | high polyreactivity
28 | QVQLVESGGGLVQAGGSLRLSCAASGIIFYYYAMGWYRQAPGTERELVARISLSGGSTYYADSVKGRFTISRDNAKNTVYLQMNSLKPEDTAVYYCATRSWYKRQTYDYWGQGTQVTVSS | high polyreactivity
29 | QVQLVESGVGLVQAGGSLRLSCAASGSTFDANAMGWYIQAPGKERELVAAITSNGGSTYYADSVKGRFTISRDNAKNTVYLQMNSLKPEDTAVYYCASEQHTVQDYDYWGQGTQVTVSS | low polyreactivity
30 | QVQLVESGGGLVQAGGSLRLSCAASGRIFGQYAMGWYRQAPGKEREFVAGISTTGGSTYYADSVKGRFTISRDNAKNTVYLQMNSLKPEDTAVYYCAVRINWSRWYHYYTYNYWGQGTQVTVSS | high polyreactivity
31 | QVQLVESGGGLVQAGGSLRLSCAASGNIFAIYAMGWYRPAPGKEREFVAAIDWSVASTYYADSVKGRFTISRDNAKNTVYLKMNSLKPEDTAVYYCAAELYCLKYGYYLSYDYWGQGTQVTVSS | high polyreactivity
32 | QVQLEESGGGVVQAGGSLRLSCAASGSILGISAMGWYRPAPGKERALVAAIRTSSGSTYYADSVKVRFTISRDNAKNTVYFQMNSLKPEDTAVYSCAAYAFRYTPYYSWGQGTQVTVSS | high polyreactivity
